US20220412989A1, “COMPOSITIONS AND METHODS FOR DETECTING CELLS UNDERGOING FERROPTOSIS USING AN ANTIBODY” (THE TRUSTEES OF COLUMBIA UNIVERSITY IN THE CITY OF NEW YORK, priority 2020, published 2022)
Entries after “also recorded” stand apart in the source; their conditions may differ.

Legend:
[1] = test system: TfR1 protein in HT-1080 cells; assay: Western blot of TfR1 during ferroptosis; assay type: cell-based, human; settings: RSL3-induced and IKE-induced ferroptosis
Experimental: HT-1080 cells were seeded in DMEM (Corning 10-013-CM) and 10% Hi-FBS with 1% penicillin and streptomycin (PS) with 1% MEM Non-Essential Amino Acids Solution (100×) (Thermo Fisher Scientific 11140-076) 16 h prior to use. DMSO or 1 μM of RSL3 was added and incubated for 4 h. Following treatment, the medium was aspirated from each dish and cells were washed twice with PBS. Cells were lysed with 70 μl lysis buffer (RIPA buffer from ThermoFisher, cat. 89900, 1 mM EDTA, 1 mM PMSF, 1× Halt™ protease inhibitor cocktail from ThermoFisher, cat. 78430 and 1× Halt™ phosphatase inhibitor cocktail from ThermoFisher, cat. 78426). Unlysed cells and debris were pelleted for 15 min at 16,000×g at 4° C. Samples were separated using SDS-PAGE and transferred to a polyvinylidene difluoride membrane. Transfer was performed using the iBlot2 system (Invitrogen). […]

[2] = test system: HCC (Huh-7) mouse xenograft tumor tissue; assay: Staining of hepatocellular carcinoma mouse xenograft tumor tissue sections; parameters: species or system human; settings: 50 mg/kg IKE once daily IP 2 days
Experimental: Tumor tissues were fixed in 4% paraformaldehyde (PFA) for 24 h at 4° C. followed by washing with PBS three times. The tissues were perfused in 30% sucrose for 24 h at 4° C. for cryo-protection. The samples were embedded in OCT cryostat sectioning medium, and then moved directly into a cryostat. After equilibration of temperature, frozen tumor tissues were cut into 5 μm thick sections. Tissue sections were mounted on to poly-L-lysine coated slides by placing the cold sections onto warm slides. Slides were stored at −80° C. until staining. For staining, slides were warmed to room temperature followed by washing with PBS twice. A hydrophobic barrier pen was used to draw a circle on each slide. The slides were permeabilized with PBS with 0.4% Triton X-100 (PBT) twice before non-specific-binding blocking by incubating the sections with 10% goat serum (ThermoFisher 50197Z) for 30 min at room temperature. […] All images were captured on a Zeiss LSM 800 confocal microscope at Plan-Apochromat 63x/1.40 Oil DIC objective with constant laser intensity for all analyzed samples. The intensity above threshold of the fluorescent signal of the bound antibodies was analyzed using NIH ImageJ software (ImageJ, RRID:SCR_003070). Data were expressed as fold change comparing with the vehicle. […]

B1: 3F3-FMA: murine monoclonal IgG1 raised against ferroptotic membrane fractions; antigen is human transferrin receptor protein 1 (TfR1) (antibody, V domains shown)
VH: EVLLQQSGTELVRPGALVKLSCKASGFNIQDLYIHWVKQRPEQGLEWIGWIDPETDNTIYDPKFQGKASITADTSSNTAYLQLSSLTSEDTAMYYCSTGLLQWYFDVWGAGTAVTVSS
VL: DIVMTQSPSSLAMSIGQKVTMRCKSSQSLLNSYNQKNCLAWYQQKPGQSPKLLLYFVSTRESGVPDRFIGSGSGTDFTLTISSVQAEDLADYFCQQHYSTPLTFGAGTKLELK
[1]
  intensity of the bands in western blotting: increased intensity of the bands
[2]
  staining intensity, IKE-treated vs vehicle samples: increased intensities; also recorded: difference in intensities
